Reference: patent US20190330296A1 (Janssen / Centocor, published 2019)
Several values for one entry are separate records, joined by “and”; a condition that tells them apart may be missing. Equal entries are not always repeated.

What was measured:
human GLP-1 receptor = human GLP-1 receptor (human, UniProt P43220 24-463); assay: cell-based or functional assay
[1] = biological target: T1, human neuropeptide Y2 receptor (human, UniProt P49146 1-381); assay: cell-based or functional assay
T1 sequence (looked up): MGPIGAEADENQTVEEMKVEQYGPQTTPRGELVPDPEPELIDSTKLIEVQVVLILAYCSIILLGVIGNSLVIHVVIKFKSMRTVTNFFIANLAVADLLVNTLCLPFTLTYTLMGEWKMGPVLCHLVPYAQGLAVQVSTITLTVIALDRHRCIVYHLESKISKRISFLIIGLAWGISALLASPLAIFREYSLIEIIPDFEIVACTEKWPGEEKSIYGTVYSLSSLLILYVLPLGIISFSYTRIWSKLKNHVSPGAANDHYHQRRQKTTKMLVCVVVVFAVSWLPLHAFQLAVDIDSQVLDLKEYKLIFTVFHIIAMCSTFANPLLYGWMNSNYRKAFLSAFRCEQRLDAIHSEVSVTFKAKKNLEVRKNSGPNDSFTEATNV

Chain of human GLP-1 receptor (P43220 24-463): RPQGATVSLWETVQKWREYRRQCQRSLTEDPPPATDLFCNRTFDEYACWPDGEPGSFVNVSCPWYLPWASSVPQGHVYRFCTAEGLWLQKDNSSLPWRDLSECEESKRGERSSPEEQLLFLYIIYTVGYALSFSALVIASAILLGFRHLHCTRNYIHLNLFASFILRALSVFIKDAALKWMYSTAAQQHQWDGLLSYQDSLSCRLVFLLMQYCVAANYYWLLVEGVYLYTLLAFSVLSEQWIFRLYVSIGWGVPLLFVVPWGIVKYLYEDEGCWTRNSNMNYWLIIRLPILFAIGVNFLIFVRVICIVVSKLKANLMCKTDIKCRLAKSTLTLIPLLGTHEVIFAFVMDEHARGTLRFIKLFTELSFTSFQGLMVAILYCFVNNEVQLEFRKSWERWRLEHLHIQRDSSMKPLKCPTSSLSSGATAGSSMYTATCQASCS

B1: GLP-1 fusion peptide GF27 (SEQ ID NO:139) (Fc fusion)
chain: HGEGTFTSDVSSYLEEQAAKEFIAWLVKGGGAPAPAPAPAPAPAPAPAPAPAPAPAGPPCPPCPAPEAAGGPSVFLFPPKPKDTLMISRTPEVTCVVVDVSQEDPEVQFNWYVDGVEVHNAKTKPREEQFNSTYRVVSVLTVLHQDWLNGKEYKCKVSNKGLPSSIEKTISKAKGQPREPQVYTLPPSQEEMTKNQVSLTCLVKGFYPSDIAVEWESNGQPENNYKTTPPVLDSDGSFFLYSRLTVDKSRWQEGNVFSCSVMHEALHNHYTQKSLSLSLGAPAPAPAPAPAPCPEEP
Human GLP1R EC50 (human GLP-1 receptor): 54 pM

B2: GLP-1 fusion peptide GF40 (SEQ ID NO:152) (Fc fusion)
chain: HGEGTFTSDVSSYLEEQAAKEFIAWLVKGGGASGGGGSGGGGSCPPCPAPEAAGGPSVFLFPPKPKDTLMISRTPEVTCVVVDVSQEDPEVQFNWYVDGVEVHNAKTKPREEQFNSTYRVVSVLTVLHQDWLNGKEYKCKVSNKGLPSSIEKTISKAKGQPREPQVYTLPPSQEEMTKNQVSLTCLVKGFYPSDIAVEWESNGQPENNYKTTPPVLDSDGSFFLYSRLTVDKSRWQEGNVFSCSVMHEALHNHYTQKSLSLSLGKASGSAPAPAPEEEPCA
Human GLP1R EC50 (human GLP-1 receptor): 207 pM

B3: GLP-1 fusion peptide GF41 (SEQ ID NO:153) (Fc fusion)
chain: HGEGTFTSDVSSYLEEQAAKEFIAWLVKGGGASGGGGSGGGGSGGGGSGGGGSCPPCPAPEAAGGPSVFLFPPKPKDTLMISRTPEVTCVVVDVSQEDPEVQFNWYVDGVEVHNAKTKPREEQFNSTYRVVSVLTVLHQDWLNGKEYKCKVSNKGLPSSIEKTISKAKGQPREPQVYTLPPSQEEMTKNQVSLTCLVKGFYPSDIAVEWESNGQPENNYKTTPPVLDSDGSFFLYSRLTVDKSRWQEGNVFSCSVMHEALHNHYTQKSLSLSLGKASGSAPAPAPEEEPCA
Human GLP1R EC50 (human GLP-1 receptor): 49 pM

B4: GLP-1 fusion peptide GF54 (SEQ ID NO:166) (Fc fusion)
chain: HGEGTFTSDVSSYLEEQAAKEFIAWLVKGGGASAPAPAPAPAPAPAPAPAPAPGSCPPCPAPEAAGGPSVFLFPPKPKDTLMISRTPEVTCVVVDVSQEDPEVQFNWYVDGVEVHNAKTKPREEQFNSTYRVVSVLTVLHQDWLNGKEYKCKVSNKGLPSSIEKTISKAKGQPREPQVYTLPPSQEEMTKNQVSLTCLVKGFYPSDIAVEWESNGQPENNYKTTPPVLDSDGSFFLYSRLTVDKSRWQEGNVFSCSVMHEALHNHYTQKSLSLSLGKASGSAPAPAPEEEPCA
Human GLP1R EC50 (human GLP-1 receptor): 35 pM and 53 pM

B5: GLP-1 fusion peptide coupled cyclic PYY peptide conjugate SEQ ID NO:239 (Fc fusion)
chain: HGEGTFTSDVSSYLEEQAAKEFIAWLVKGGGASAPAPAPAPAPAPAPAPAPAPGSCPPCPAPEAAGGPSVFLFPPKPKDTLMISRTPEVTCVVVDVSQEDPEVQFNWYVDGVEVHNAKTKPREEQFNSTYRVVSVLTVLHQDWLNGKEYKCKVSNKGLPSSIEKTISKAKGQPREPQVYTLPPSQEEMTKNQVSLTCLVKGFYPSDIAVEWESNGQPENNYKTTPPVLDSDGSFFLYSRLTVDKSRWQEGNVFSCSVMHEALHNHYTQKSLSLSLGKASGSAPAPAPEEEPCA
peptide: GISPEAPGEKASPEELNRYYASLRHYLNCVTRQRY
modifications: [cyclo-(G2-COCH2-C30), K(AcBr)11, N-Me-R35]-PYY2-36; Br displaced on conjugation to the linker Cys; C-terminal amide; Cys of the second linker peptide thioether-linked to the Lys11 side chain of the cyclic PYY peptide
Human GLP1R EC50 (human GLP-1 receptor): 42 pM | Human Y2R EC50 [1]: 6 pM

B6: GLP-1 fusion peptide coupled cyclic PYY peptide conjugate SEQ ID NO:248 (Fc fusion)
chain: HGEGTFTSDVSSYLEEQAAKEFIAWLVKGGGASGGGGSGGGGSCPPCPAPEAAGGPSVFLFPPKPKDTLMISRTPEVTCVVVDVSQEDPEVQFNWYVDGVEVHNAKTKPREEQFNSTYRVVSVLTVLHQDWLNGKEYKCKVSNKGLPSSIEKTISKAKGQPREPQVYTLPPSQEEMTKNQVSLTCLVKGFYPSDIAVEWESNGQPENNYKTTPPVLDSDGSFFLYSRLTVDKSRWQEGNVFSCSVMHEALHNHYTQKSLSLSLGKASGSAPAPAPEEEPCA
peptide: GISPEAPGEKASPEELNRYYASLRHYLNCVTRQRY
modifications: [cyclo-(G2-COCH2-C30), K(AcBr)11, N-Me-R35]-PYY2-36; Br displaced on conjugation to the linker Cys; C-terminal amide; Cys of the second linker peptide thioether-linked to the Lys11 side chain of the cyclic PYY peptide
Human GLP1R EC50 (human GLP-1 receptor): 264 pM | Human Y2R EC50 [1]: 18 pM

B7: GLP-1 fusion peptide coupled cyclic PYY peptide conjugate SEQ ID NO:249 (Fc fusion)
chain: HGEGTFTSDVSSYLEEQAAKEFIAWLVKGGGASGGGGSGGGGSCPPCPAPEAAGGPSVFLFPPKPKDTLMISRTPEVTCVVVDVSQEDPEVQFNWYVDGVEVHNAKTKPREEQFNSTYRVVSVLTVLHQDWLNGKEYKCKVSNKGLPSSIEKTISKAKGQPREPQVYTLPPSQEEMTKNQVSLTCLVKGFYPSDIAVEWESNGQPENNYKTTPPVLDSDGSFFLYSRLTVDKSRWQEGNVFSCSVMHEALHNHYTQKSLSLSLGKASGSAPAPAPEEEPCA
peptide: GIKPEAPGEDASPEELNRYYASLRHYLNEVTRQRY
modifications: [cyclo-(G2-E30), S4, K(AcBr)11, N-Me-R35]-PYY2-36; Br displaced on conjugation to the linker Cys; C-terminal amide; Cys of the second linker peptide thioether-linked to the Lys11 side chain of the cyclic PYY peptide
Human GLP1R EC50 (human GLP-1 receptor): 148 pM | Human Y2R EC50 [1]: 143 pM

B8: GLP-1 fusion peptide coupled cyclic PYY peptide conjugate SEQ ID NO:250 (Fc fusion)
chain: HGEGTFTSDVSSYLEEQAAKEFIAWLVKGGGASGGGGSGGGGSCPPCPAPEAAGGPSVFLFPPKPKDTLMISRTPEVTCVVVDVSQEDPEVQFNWYVDGVEVHNAKTKPREEQFNSTYRVVSVLTVLHQDWLNGKEYKCKVSNKGLPSSIEKTISKAKGQPREPQVYTLPPSQEEMTKNQVSLTCLVKGFYPSDIAVEWESNGQPENNYKTTPPVLDSDGSFFLYSRLTVDKSRWQEGNVFSCSVMHEALHNHYTQKSLSLSLGKASGSAPAPAPEEEPCA
peptide: GISPEAPGEKASPEELNRYYASLRHYLNEVTRQRY
modifications: [cyclo-(G2-E30), S4, K(AcBr)11, psi-(R35,Y36)]-PYY2-36; Br displaced on conjugation to the linker Cys; C-terminal amide; Cys of the second linker peptide thioether-linked to the Lys11 side chain of the cyclic PYY peptide
Human GLP1R EC50 (human GLP-1 receptor): 213 pM | Human Y2R EC50 [1]: 10 pM
